Results on 7 molecules are retold here after PMC1277818, “Substrate specificity analysis of protein kinase complex Dbf2-Mob1 by peptide library and proteome array screening” (BMC Biochemistry, 2005).

The test concerns the target T1, FHHDbf2-H6Mob1TM9 (Saccharomyces cerevisiae, UniProt P22204+P40484).
T1 construct: made in house; host or cells: Hi5 insect cells (baculovirus)
T1 sequence (P22204 1-572): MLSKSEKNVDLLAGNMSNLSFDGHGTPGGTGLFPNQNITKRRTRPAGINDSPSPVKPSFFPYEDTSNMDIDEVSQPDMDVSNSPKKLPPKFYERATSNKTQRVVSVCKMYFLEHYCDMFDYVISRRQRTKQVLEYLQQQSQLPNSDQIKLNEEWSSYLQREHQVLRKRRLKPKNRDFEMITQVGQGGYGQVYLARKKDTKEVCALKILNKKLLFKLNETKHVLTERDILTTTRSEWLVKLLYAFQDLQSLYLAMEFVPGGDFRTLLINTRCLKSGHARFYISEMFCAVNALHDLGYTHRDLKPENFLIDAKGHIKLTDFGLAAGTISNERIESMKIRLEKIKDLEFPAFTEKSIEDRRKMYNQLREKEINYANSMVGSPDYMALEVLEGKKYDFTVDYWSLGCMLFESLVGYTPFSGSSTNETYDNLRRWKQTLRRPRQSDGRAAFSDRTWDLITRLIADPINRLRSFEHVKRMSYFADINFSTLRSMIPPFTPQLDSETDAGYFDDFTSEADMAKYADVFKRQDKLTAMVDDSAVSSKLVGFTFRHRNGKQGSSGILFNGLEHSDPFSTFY
T1 sequence (P40484 1-314 partner): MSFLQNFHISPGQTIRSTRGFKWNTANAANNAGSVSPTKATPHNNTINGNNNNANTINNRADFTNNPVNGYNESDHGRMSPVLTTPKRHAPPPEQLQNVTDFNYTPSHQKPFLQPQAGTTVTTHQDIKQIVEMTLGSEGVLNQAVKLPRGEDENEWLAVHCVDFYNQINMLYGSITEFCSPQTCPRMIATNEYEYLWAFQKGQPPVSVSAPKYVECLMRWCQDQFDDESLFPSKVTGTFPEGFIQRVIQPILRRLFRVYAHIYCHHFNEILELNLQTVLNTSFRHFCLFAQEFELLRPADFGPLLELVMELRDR
Nature of the test: Yeast proteome chip assay. Format: biochemical. As to conditions: Table 3; GST fusion proteins on proteome chip, [γ-33P]ATP, chips in duplicate, computer analysis. Here is the method:
The relatively low sequence complexity of the Dbf2 phosphorylation motif diminished the power of using genome-wide bioinformatics screens to identify putative substrates. Accordingly, we carried out a proteome array screen to identify putative yeast substrates. […] After taking into account the proteins phosphorylated in the negative controls, 67 proteins were determined to be putative Dbf2-Mob1 substrates (Table 3).
Yeast proteome microarrays were prepared as previously described. Overexpressed GST-tagged yeast proteins were purified from ~4,400 yeast strains and spotted on slides. To determine the optimal amount of kinase to use for probing proteome chips, we performed trial assays as described (J. Ptacek et al., submitted). […] The full proteome array was probed with 4 μl ^FHHDbf2-^H6Mob1^TM9 in 200 μl of DKB supplemented with [γ-^33P]ATP. As a control, ^FHHDbf2(N305A)-^H6Mob1^TM9 was used to probe the proteome array. […] To control for autophosphorylated proteins, the proteome array was probed with 200 μl of DKB supplemented with [γ-^33P]ATP. Proteome chips were assayed in duplicate in each case. Data analysis was performed as described (J. Ptacek et al., submitted). Briefly, signals were analyzed by a computer algorithm designed to normalize background and identify signals as positive if 3 of 4 spots (each protein is spotted twice on each slide and each kinase or control was tested on 2 slides) were 2 standard deviations above background and the fourth spot was 1.5 standard deviations above background.

B1: YKL146W: GST fusion yeast protein on proteome chip (protein, UniProt P36062 1-692, looked up)
Vacuolar amino acid …: MNGKEVSSGSGRTQSNNNKKNNNGGSTGISHASGSPLTDGNGGNSNGNSRSRSRSRKSSGTTGGLLKKPPLLVNNEAVHASVPDASHTSCNNGTLEVSINNPEPHVVDAVARHLIRNPSNSLQLQGGDITRDLYKWTNDHPSSPSQYQYPSQPALSTSIPSQAPSFSNRKRSMSFSAASIASSSHLNNNSEANGNPLAAIGLAPAPMTHEEIRAPGGFRRSFIIQKRRKHNVDAPIPNFFTRNFIEFLTLYGHFAGEDLSEEEEEEEETEEEPEEEALETESTQLVSREHGRHPHKSSTVKAVLLLLKSFVGTGVLFLPKAFHNGGWGFSALCLLSCALISYGCFVSLITTKDKVGVDGYGDMGRILYGPKMKFAILSSIALSQIGFSAAYTVFTATNLQVFSENFFHLKPGSISLATYIFAQVLIFVPLSLTRNIAKLSGTALIADLFILLGLVYVYVYSIYYIAVNGVASDTMLMFNKADWSLFIGTAIFTFEGIGLLIPIQESMKHPKHFRPSLSAVMCIVAVIFISCGLLCYAAFGSDVKTVVLLNFPQDTSYTLTVQLLYALAILLSTPLQLFPAIRILENWTFPSNASGKYNPKVKWLKNYFRCAIVVLTSILAWVGANDLDKFVSLVGSFACIPLIYIYPPLLHYKASILSGTSRARLLLDLIVIVFGVAVMAYTSWQTIKMWSQ
modifications: GST tag
notes: GST fusion yeast protein on proteome chip
With B1, the “Slide Signal (after normalization)” value is reported as 0.3592.

B2: YIL010W: GST fusion yeast protein on proteome chip (protein, UniProt P40553 1-215, looked up)
Peroxiredoxin DOT5: MGEALRRSTRIAISKRMLEEEESKLAPISTPEVPKKKIKTGPKHNANQAVVQEANRSSDVNELEIGDPIPDLSLLNEDNDSISLKKITENNRVVVFFVYPRASTPGCTRQACGFRDNYQELKKYAAVFGLSADSVTSQKKFQSKQNLPYHLLSDPKREFIGLLGAKKTPLSGSIRSHFIFVDGKLKFKRVKISPEVSVNDAKKEVLEVAEKFKEE
modifications: GST tag
notes: as for B1
As for B2, the “Slide Signal (after normalization)” value worked out at 0.2606.

B3: YBL106C: GST fusion yeast protein on proteome chip (protein, UniProt P38163 1-1010, looked up)
Lethal(2) giant larvae …: MFKKSRHLKNVSNAIKSARVHDVSNGINSKFFDTKKICTYGINGRITVTTFDYTQSLLAVATTAGEIHVYGQKQIEVVFTLKNRPQIKHMRFIKGIYLIAVDEKSNIIVLSVHSKQILTTVFCPNSITCIETDPSLDWMLIGLESGSILIYDVDRNQMSKLKIENFQKSVFLPKERLSPVISIQWNPRDIGTILISYEHITVIYSFIDYKVKQHFFYQLEPYAPGGDLSTNIEKKRTPKVIQSLYHPNSLHILTVHEDNSLVFWDVNSGKLIHARSIFETHVNFPNPALKDCSFTETPAIFKVSWLCQRNPEYTSLLIATKATENPCLPQEITMIDLGGTPMYSVTSFDAMSKYYAKPVQQKLFSLIGKAPLINFLPLPKASPYFGGCHDTNLILLLLEDGELETLIYPAGSFSSKASIFPRSLAWVRPTVTTCIAQSVQKNLWLGMMTIAQSESFLKGGIPATRNIRRHETRSALLTGHSNGSVRIWDASHSEVTDNAVFEVNTAKVLNRATNLAIKNISFASETLELAVSSEVGDVILFKFETNKFYGQLPKSDALQLKFSRFSLDDSKTILVDVSDRGPTNVKQGFIPSTVIHAKKGAVSAIMNSNIGFVAVGFIEGTLIILDRRGPAIIFNENIRVISKAGSSYVSTVHFCVMEYGDDGFSSILMLCGTDIGELMTFKILPATNGRFEVKFTDATKTNNQGKILGINSFAKDTGYSCSATISKMQGLSKGIAIPGFVTISGANDIRLVSPGKSKDTHALFKYPIATSGLSFIPIIDGKGERKLSTIMIVLLINGDIKVLTVPELKEVKNLRCPVPLSAQYVENSSILENGDIVIRTGKFQASLISVLNESATGTNHTADISQHTPIDTLYNPDLKIGYRPQVNSLQWARGTIYCTPYQLDELLGGIERPESKYEESAIARGCISSSSSNAARKLPPGTEDHRYARPVRSSGRSNGYGVLKSVSRAIETRLDTVETTINDYATTMGQTMNDAMEETGRDMMKSAVGF
modifications: GST tag
notes: as for B1
Turning to B3, the “Slide Signal (after normalization)” value is on record as 0.5988.

B4: YNL125C: GST fusion yeast protein on proteome chip (protein, UniProt P53918 1-673, looked up)
Uncharacterized transporter …: MSTHSNDYFSASSGMVSETSSEVSSINSSQPVSFSKASIAAPVPCSDLHSTKSNDASRKLSISRTLTNRLNDIKKAVDDDNLQTEENSADVNKILESRFDVADAIRLQHNESVQSKLNIPVTHTTTAGASLSAPSSSAFSASSIQNDTTEHKASMDSKLMRNRLYPASTKHSGKDLEAQGITEFEPDEPTVKKVFTNKSTGQLELPPDGGYGWVVTFCVFLTMFSTWGCNASFGVDLAYYLNHDTYPGASKYDYALIAGLTVFLGQLLSPLVMALMRIIGLRTTMLFGDAVMLAAYLLASFTTKLWQLYVTQGFMVGCSISLIFVPATTVLPGWFLKKRAVAMGVSLLGTGAGGVVYGLATNKMLSDFGNTRWCLRIIGISCSISVLVAIALLKERNPTPAIGLKSPRAMFEQLKAMFSLKVITKPFVVLIALWFMFALFAYNMMVFTLSSYAISKGLSSHDASTLTAILNGSQSIGRPLMGLAGDKFGRANVTIVLTTLLTIYMFAFWIPAHTFVQLIFFSILVGSCVGVANVMNTVLIADMVKPEEFLPAWAFVNYCGAPFLLVCEVIAQALTVEKDKSNPYLHAQIFCGCCFIAALILISILREYSIRMKLTERQAMTNEKLKEWKASEYDTDSADEDWGKLKERKTKYDLLLGPGIKKYFLRMVYPMKV
modifications: GST fusion
notes: as for B1
On to B4, for which the “Slide Signal (after normalization)” value worked out at 0.5694.

B5: YDR299W: GST fusion yeast protein on proteome chip (protein, UniProt Q06631 1-534, looked up)
Protein BFR2: MEKSLADQISDIAIKPVNKDFDIEDEENASLFQHNEKNGESDLSDYGNSNTEETKKAHYLEVEKSKLRAEKGLELNDPKYTGVKGSRQALYEEVSENEDEEEEEEEEEEKEEDALSFRTDSEDEEVEIDEEESDADGGETEEAQQKRHALSKLIQQETKQAINKLSQSVQRDASKGYSILQQTKLFDNIIDLRIKLQKAVIAANKLPLTTESWEEAKMDDSEETKRLLKENEKLFNNLFNRLINFRIKFQLGDHITQNEEVAKHKLSKKRSLKELYQETNSLDSELKEYRTAVLNKWSTKVSSASGNAALSSNKFKAINLPADVQVENQLSDMSRLMKRTKLNRRNITPLYFQKDCANGRLPELISPVVKDSVDDNENSDDGLDIPKNYDPRRKDNNAIDITENPYVFDDEDFYRVLLNDLIDKKISNAHNSESAAITITSTNARSNNKLKKNIDTKASKGRKLNYSVQDPIANYEAPITSGYKWSDDQIDEFFAGLLGQRVNFNENEDEEQHARIENDEELEAVKNDDIQIFG
modifications: GST tag
notes: as for B1
For the molecule B5, the “Slide Signal (after normalization)” value is 0.47.

B6: YPL211W: GST fusion yeast protein on proteome chip (protein, UniProt Q08962 1-181, looked up)
60S ribosome subunit …: MRQLTEEETKVVFEKLAGYIGRNISFLVDNKELPHVFRLQKDRVYYVPDHVAKLATSVARPNLMSLGICLGKFTKTGKFRLHITSLTVLAKHAKYKIWIKPNGEMPFLYGNHVLKAHVGKMSDDIPEHAGVIVFAMNDVPLGFGVSAKSTSESRNMQPTGIVAFRQADIGEYLRDEDTLFT
modifications: GST tag
notes: as for B1
With B6, the “Slide Signal (after normalization)” value was 0.4521.

B7: YOL104C: GST fusion yeast protein on proteome chip (protein, UniProt Q12366 1-352, looked up)
Non-disjunction protein 1: MSKDNRLASILLQPVASSSGNCTEFHDSKLHTLQEELNFLPLEGVASNVCPPMFRGHKNYVFVLYCLNQVDLVTNLQDSTKRYYPLQIFKDCQLSSLVQKDFSHYFQLSRQKEGEDRNDSDTTLVNVVNSGVSRHRSQLLKMCIIPRICSFDKSNSKTYKLIQEYVNRFETVLTKFGPEKDFTKVYANWSKLIESFNELILHDLLVKWQQWSELTQPNATVHQNIPNVLRELVIKLTQRYFTFQPSYSCSIDEFTTILLNKNALSLLDVFRKPRKYKLNFGLWLDCQNGILIFTNGIVQMADEITSERVKSFVRPAHLLVLEDHSNDEAVKKLMFFTFSAILQCFTDEILNC
modifications: GST tag
notes: as for B1
In the case of B7, the “Slide Signal (after normalization)” value is reported as 0.3611.
